US20050026833A1, “PSP-94: use for treatment of hypercalcemia and bone metastasis” (priority 2001, published 2005)
“Also recorded” adds a separate entry of the source.

B1: PSP-94: prostate secretory protein of 94 amino acids; native human seminal plasma PSP-94 (protein)
chain: SCYFIPNEGVPGDSTRKCMDLKGNKHPINSEWQTDNCETCTCYETEISCCTLVSTPVGYDKDNCQRIFKKEDCKYIVVEKKDPKKTCSVSEWII

How the values were obtained:
[1] = Plasma calcium by atomic absorption spectrophotometry in tumor bearing animals; type: in vivo, male Copenhagen rats
Experimental: Control animals received PBS alone as vehicle control.
Other Analytical Methods. Plasma calcium levels were determined by atomic absorption spectrophotometry (model 703, Perkin-Elmer, Norwalk, Conn.). For plasma PTHrP, all samples were tested in two dilutions in PTHrP radio-immunoassay (R.I.A.) kit (Nichols Institute Diagnostics, San Juan Capistrano, Calif.) according to manufacturer's instructions.
Comparison was made between plasma collected from normal, non-tumor bearing animals (N), control tumor bearing animals receiving vehicle alone (CTL) and plasma collected from experimental animals receiving different doses of PSP-94 (0.1-10.0 ug/kg/day). Plasma calcium levels were determined by atomic absorption spectrophotometry (model 703, Perkin-Elmer, Norwalk, Conn.). For plasma PTHrP, all samples were tested in two dilutions in PTHrP R.I.A. kit (Nichols Institute Diagnostics, San Juan Capistrano, Calif.) according to manufacturers instructions.
FIGS. 10A and 10B show male Copenhagen rats inoculated s.c. with 10^6 Mat Ly Lu-PTHrP cells. Following 3 days of tumor cell inoculation, animals were treated with vehicle alone (Ctl) or different doses (1.0, or 10.0 ug/kg/day) of PSP-94 for 18 days. Animals were sacrificed on day 21 and plasma PTHrP (FIG. 10A; expressed in picomole equivalents/liter) or plasma calcium (FIG. 10B; expressed in millimolar (mM)) levels were determined. Results for non-tumor bearing animals are also shown (N).
Plasma calcium levels from non-tumor bearing animals are also shown (N).

[2] = system: Mat Ly Lu-PTHrP cells; assay: Mat Ly Lu-PTHrP cell growth curve (Coulter counter); type: cell-based, rat
Experimental: Growth curve. For growth curves, Mat Ly Lu-PTHrP cells were plated in 6-well plates (Falcon Plastics, Oxnard, Calif.) at seeding densities of 5×10^3 cells/well. Mat Ly Lu-PTHrP cells were grown in the presence of 0.1, 1.0 & 10.0 ug/ml of PSP-94 or vehicle alone for up to 3 days and the ability of PSP-94 to alter cell doubling time was evaluated daily. Medium was changed every two days. The number of cells was counted in a model Z Coulter counter (Coulter Electronics, Beds, UK). Comparison was also made with doubling time of wild type untransfected Mat Ly Lu cells.
Mat Ly Lu cells transfected with vector alone (CMV) or vector expressing PTHrP were seeded at a density of 5×10^3 cells/well in 6-well plates. Mat Ly Lu-PTHrP cells were treated with PSP-94 and were trypsinized and counted using a coulter counter as described herein. Change in cell number following treatment with 10.0 ug/ml of PSP-94 for 72 hrs is illustrated in FIG. 1.
Mat Ly Lu-PTHrP cells were seeded at a density of 5×10^3 cells/well in 6-well plates and treated with different doses (1.0-100.0 ug/ml) of PCK3145 for up to 5 days and were trypsinized and counted using a coulter counter as described herein.

[3] = system: Mat Ly Lu-PTHrP tumors; assay: TUNEL assay and Hoechst counterstaining of primary tumor sections; type: in vivo, male Copenhagen rats; conditions: vs vehicle; for TUNEL staining of tumor sections: fifteen days
Experimental: For TUNEL assay, tissue sections were, for example, dewaxed (e.g., in xylene), (may also be rehydrated by heating at 60° C. followed by washing in xylene) and (further) rehydrated through a graded alcohol series (100%-70%). Tissues were incubated with proteinase K for 30 min at 37° C. fixed, blocked and permeabilized. Apoptotic cells were detected by TUNEL assay in situ cell death detection kit (Roche Molecular Biochemicals, Laval, QC) according to the manufacturer's instruction. Positive TUNEL staining was visualised by fluorescence microscopy. In other experiments following TUNEL assay, tissue sections were counterstained with Hoechst 33258 (Sigma-Aldrich, Canada). Hoechst staining was added to tissues at a final concentration of 24 ug/ml in PBS and incubated for 15 minutes at room temperature. Tissue sections were washed and visualized by fluorescence microscopy using a blue screen (Rabbani, S. A., et al., Int. J.Cancer, 87:276-282, 2000). All results of immunohistochemistry and TUNEL assay were evaluated and interpreted by two independent examiners.
The degree of DNA fragmentation was also analyzed in vivo using TUNEL assay which can serve as a marker for apoptosis. […] All animals were sacrificed at the end of the study and their primary tumors removed, paraffin embedded, sectioned and processed by TUNEL assay (upper panel of FIG. 14B) as described herein. Following TUNEL assay, they were counterstained with Hoescht reagent (lower panel of FIG. 14B).
In order to investigate an underlying molecular mechanism of action of PCK3145 in reducing tumor growth, Mat Ly Lu-PTHrP tumors were analyzed using TUNEL assay which can serve as a marker for apoptosis. […] All animals were sacrificed at the end of the study and their primary tumors removed, paraffin embedded, sectioned and processed by TUNEL assay (upper panel) and counterstained with Hoescht reagent (lower panel). Five animals were present in each group and three sections were analyzed for each animal.

[4] = Animal weight and side-effect monitoring in tumor-bearing rats; conditions: for cytotoxic effects: overall conclusion of the study
Experimental: Also, alternatively, cell pellets (5×10^5 cells) were resuspended in 100 ul saline and injected using 1 ml syringes into the right flank of rats as described herein. From the time of tumor cell inoculation, experimental animals were treated with different doses (0.1, 1.0, 10.0, or 100.0 ug/kg/day) of PSP-94 or PCK3145 (SEQ ID NO.:5) via S.C. injections for 15 consecutive days. Control animals received PBS alone as vehicle control. All animals were numbered, kept separately and monitored daily for the development of tumors. […] All control and experimental animals were weighed every alternate day to determine any adverse effect of PSP-94 or PCK3145. Both control and experimental animals were sacrificed at day 16 post tumor cell inoculation and their tumors were removed and weighed.
During the study, both control and experimental animals were monitored for any noticeable side effects and cachexia resulting in weight loss. […] Starting on the time of tumor cell inoculation animals were infused with different doses of PSP-94 for fifteen consecutive days as described herein. All animals were weighed at timed intervals and comparison was made with that of tumor bearing animals receiving vehicle alone as control (CTL).
Male Copenhagen rats were inoculated with 1×10^6 Mat Ly Lu-PTHrP cells via S.C. route of injection into the right flank. Animals were infused daily via S.C. route, below the site of tumor cell inoculation, with different doses (1.0-100.0 ug/kg/day) of PCK3145 starting from the day of tumor cell inoculation and lasting for 15 days. […] Animals were also weighed to determine any side effects of administering PCK3145. […] In order to determine the effect of PCK3145 on tumor weight, control animals and experimental animals receiving PCK3145 were sacrificed at the end of the study (day 16) and their tumors excised and weighed.

Molecule	plasma calcium levels ([1]; 100.0 ug/kg PCK3145, relative to lower doses)	plasma calcium levels ([1]; different doses of PCK3145, day 16, vs vehicle)	cell growth ([2]; PCK3145 1.0-100.0 ug/ml up to 5 days, vs vehicle)	cell number ([2]; PCK3145 highest dose 100.0 ug/ml, vs vehicle)	Hoechst counterstaining of tumor sections ([3]; Example 9, PCK3145 study)	TUNEL staining of tumor sections ([3]; PCK3145 100.0 ug/kg/day)	animal weight ([4]; PCK3145 1.0-100.0 ug/kg/day S.C. for 15 days)	cytotoxic effects [4]	plasma calcium levels ([1]; different doses of PSP-94, day 16, vs vehicle)	plasma calcium levels ([1]; highest dose of PSP-94, 10.0 ug/kg/day)	MatLyLu-PTHrP cell growth ([2]; 10.0 ug/ml PSP-94 for 72 hrs, vs cells without PSP-94)	TUNEL staining of tumor sections ([3]; PSP-94 10.0 ug/kg/day)	Hoechst counterstaining of tumor sections ([3]; PSP-94 treated animals)	side effects or weight loss of experimental animals ([4]; different doses of PSP-94, S.C. tumor model)	animal weight ([4]; different doses of PSP-94 for fifteen consecutive days, vs vehicle)
E W Q T D N C E T C T C Y E T (EWQTDNCETCTCYET; PCK3145 (polypeptide 31-45))	more pronounced	significant reduction	dose dependent decrease	significant reduction	presence of apoptotic bodies	significantly more TUNEL positive	No significant difference	without manifesting any noticeable cytotoxic effects							
B1					condensed chromatin			without manifesting any noticeable cytotoxic effects	significant reduction; also recorded: dose-dependent decrease	near normalization	significant decrease	significantly more TUNEL positive	presence of apoptotic bodies; also recorded: condensed chromatin	not associated with any noticeable side effects or weight loss	No significant change
